Biological target: the molecule itself
Test: SDS-PAGE, reducing against non-reducing; m4-1BBL alone; about 40 kDa in reducing and about 70 kDa in non-reducing conditions (Supplementary Figure 3a)

B1: recombinant soluble mouse 4-1BBL (ligand, UniProt P41274 104-309, looked up)
chain: RTEPRPALTITTSPNLGTRENNADQVTPVSHIGCPNTTQQGSPVFAKLLAKNQASLCNTTLNWHSQDGAGSSYLSQGLRYEEDKKELVVDSPGLYYVFLELKLSPTFTNTGHKVQGWVSLVLQAKPQVDDFDNLALTVELFPCSMENKLVDRSWSQLLLLKAGHRLSVGLRAYLHGAQDAYRDWELSYPNTTSFGLFLVKPDNPWE
notes: 4-1BB ligand (4-1BBL, TNFSF9), mouse, recombinant soluble form; For the RICS imaging it was labelled with CF488A (Mix-n-Stain kit); also called m4-1BBL; 4-1BB-Ligand; source: bought: Biolegend (cat#754402)
- stoichiometry N: 3

— paper PMC6237851, “A tumor-targeted trimeric 4-1BB-agonistic antibody induces potent anti-tumor immunity without systemic toxicity” (Nature Communications, 2018)
